In patent publication US20250115677A1, “Anti-CEA Antibody Drug Conjugates and Methods of Use” (BeiGene Switzerland GmbH, priority 2022, published 2025):

What was measured:
[1] = biological target: T1, CEACAM3 on transiently transfected HEK293 cells (Homo sapiens (Human), UniProt P40198 35-252); assay: flow cytometry on transiently transfected HEK293 cells
T1 sequence: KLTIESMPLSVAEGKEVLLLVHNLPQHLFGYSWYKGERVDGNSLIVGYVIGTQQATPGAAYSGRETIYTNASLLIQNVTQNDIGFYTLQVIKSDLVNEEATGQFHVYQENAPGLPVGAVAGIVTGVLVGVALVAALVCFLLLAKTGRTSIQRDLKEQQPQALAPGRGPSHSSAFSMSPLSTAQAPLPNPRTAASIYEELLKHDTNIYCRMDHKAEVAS
Experimental: (§1) Cell fluorescence was quantified using a flow cytometer (Guava easyCyte™ 8HT, Merck-Millipore, USA). For antigen ELISA, CEACAM1(SEQ ID NO:64) (Cat. No. 10822-H08H, Sino Biological, China), CHIM (SEQ ID NO:63), CEA (SEQ ID NO:55) or CEACAM6 (SEQ ID NO:57) were coated in 96-well plates at a concentration of 10 μg/ml overnight at 4° C.

[2] = biological target: T2, CEACAM7 on transiently transfected HEK293 cells (Homo sapiens (Human), UniProt Q14002 36-242); assay: as above
T2 sequence: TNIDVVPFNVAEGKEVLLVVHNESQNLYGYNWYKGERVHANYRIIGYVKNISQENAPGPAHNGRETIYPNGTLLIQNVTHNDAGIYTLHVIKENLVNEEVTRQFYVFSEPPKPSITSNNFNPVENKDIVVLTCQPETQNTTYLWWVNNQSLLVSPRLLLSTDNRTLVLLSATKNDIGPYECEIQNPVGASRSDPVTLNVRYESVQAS
Experimental: as §1

[3] = biological target: T3, CEACAM8 on transiently transfected HEK293 cells (Homo sapiens (Human), UniProt P31997 35-320); assay: as above
T3 sequence: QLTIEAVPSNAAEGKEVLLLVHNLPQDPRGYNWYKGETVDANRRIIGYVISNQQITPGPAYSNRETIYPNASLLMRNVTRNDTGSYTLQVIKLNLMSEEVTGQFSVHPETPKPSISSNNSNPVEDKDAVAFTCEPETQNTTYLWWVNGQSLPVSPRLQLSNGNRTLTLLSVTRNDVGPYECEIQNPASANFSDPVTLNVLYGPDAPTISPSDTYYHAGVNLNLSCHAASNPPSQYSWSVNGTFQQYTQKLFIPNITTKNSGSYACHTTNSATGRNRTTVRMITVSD
Experimental: as §1

[4] = biological target: T4, cynoCEA (Cat.:CE5-C52H5, Acrobiosystem) (cyno); assay: SPR (BIAcore T-200); antibody captured on anti-human IgG chip, antigen flowed (1.37-2150 nM)
T4 chain: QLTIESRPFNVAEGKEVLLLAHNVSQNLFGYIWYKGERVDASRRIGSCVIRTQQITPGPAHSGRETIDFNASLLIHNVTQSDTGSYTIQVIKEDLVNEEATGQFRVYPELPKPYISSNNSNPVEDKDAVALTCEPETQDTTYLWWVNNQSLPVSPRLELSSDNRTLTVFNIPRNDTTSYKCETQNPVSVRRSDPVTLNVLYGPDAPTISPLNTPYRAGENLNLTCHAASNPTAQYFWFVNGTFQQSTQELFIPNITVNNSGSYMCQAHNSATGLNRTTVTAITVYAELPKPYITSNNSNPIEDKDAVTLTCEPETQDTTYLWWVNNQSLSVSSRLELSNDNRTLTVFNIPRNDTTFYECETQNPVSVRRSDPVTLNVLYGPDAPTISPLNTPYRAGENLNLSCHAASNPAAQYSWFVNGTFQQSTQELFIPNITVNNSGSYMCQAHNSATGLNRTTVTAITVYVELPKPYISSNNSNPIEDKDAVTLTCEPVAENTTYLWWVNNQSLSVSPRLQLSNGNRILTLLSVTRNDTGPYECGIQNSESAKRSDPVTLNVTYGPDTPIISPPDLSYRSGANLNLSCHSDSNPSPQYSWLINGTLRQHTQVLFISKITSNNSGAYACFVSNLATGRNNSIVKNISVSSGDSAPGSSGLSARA

[5] = biological target: T5, human CEA on cells (MKN45, LOVO, NCI-H2122, LS174T, CT26/CEA) (human, UniProt P06731 35-685); assay: flow cytometry on MKN45 cells, BGA5384 premixed with 0.50 ug/ml recombinant soluble CEA (competitor), anti-huFc-APC
T5 construct: Full-length human CEA, endogenous on tumour cell lines or transduced; also called native CEA on living cells; huCEA surface protein
T5 sequence: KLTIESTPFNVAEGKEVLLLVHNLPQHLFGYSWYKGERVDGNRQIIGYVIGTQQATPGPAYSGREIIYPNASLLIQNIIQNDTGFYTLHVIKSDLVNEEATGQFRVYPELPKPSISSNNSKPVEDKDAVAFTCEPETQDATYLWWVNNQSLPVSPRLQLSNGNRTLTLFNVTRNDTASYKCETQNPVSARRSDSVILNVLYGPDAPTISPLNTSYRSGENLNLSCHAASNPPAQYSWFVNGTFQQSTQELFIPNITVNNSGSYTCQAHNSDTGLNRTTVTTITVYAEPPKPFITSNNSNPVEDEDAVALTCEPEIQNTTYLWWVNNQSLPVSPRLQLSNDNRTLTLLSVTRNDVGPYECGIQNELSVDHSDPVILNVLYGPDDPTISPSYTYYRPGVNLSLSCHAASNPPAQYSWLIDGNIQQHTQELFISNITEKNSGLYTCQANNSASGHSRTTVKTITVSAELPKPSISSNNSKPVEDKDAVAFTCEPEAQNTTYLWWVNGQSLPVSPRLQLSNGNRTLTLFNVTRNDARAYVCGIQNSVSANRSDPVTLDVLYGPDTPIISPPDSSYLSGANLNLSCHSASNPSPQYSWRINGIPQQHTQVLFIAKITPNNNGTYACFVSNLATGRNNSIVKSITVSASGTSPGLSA
Experimental: (§2) The mixtures were then incubated with 2×10^5 CEA-expressing cells, such as MKN45 cells, for 30 minutes at 4° C. The cells were stained with secondary antibody anti-huFc-APC (Cat. No. 409320, BioLegend, USA) and analyzed by flow cytometry.

[6] = biological target: T5, human CEA on cells (MKN45, LOVO, …); assay: flow cytometry on MKN45 cells, BGA5384 premixed with 2.00 ug/ml recombinant soluble CEA (competitor), anti-huFc-APC
Experimental: as §2

binding result [1]: no binding (tested: 2 µg/ml)
binding result [2]: no binding (tested: 2 µg/ml)
binding result [3]: no binding (tested: 2 µg/ml)
Kd [4]: 0.0199 µM
EC50 (read off the curve) [5]: ~1 mg/L
EC50 (read off the curve) [6]: ~2 mg/L
B1: BGA5384 (antibody, human IgG1, kappa, V domains shown)
VH: QVQLVQSGAEVKKPGASVKVSCKASGYIFTSYYLHWVRQAPGQGLEWIGYINPQTGKTSYAQKFQGRVTMTRDTSTSTVYMELSSLRSEDTAVYYCAREYGNYNYPLDYWGQGTLVTVSS
VL: DIQMTQSPSSLSASVGDRVTITCRASENQYGYLAWYQQKPGKVPKLLIYNYKNLVEGVPSRFSGSGSGTDFTLTISSLQPEDVATYYCQHHLGTPYTFGQGTKVEIKR
notes: BGA6710 with Y57K in VH; human IgG1 format; also called BGA7592-1K
